Experimental data from the supplement of paper PMC7125110.
± gives the standard error. Fewer inactive variants are shown than the library holds.

B1: glmS ribozyme (parent)
chain: AUAAAAGCGCCAGAACUACAGAAAUGUAGUUGACGAGGAGGAGGUUUAUCGAAUUUUCGGCGGAUGCCUCCAAA

Variants of: B1
Test: self-cleavage kobs at 2500 uM GlcN6P; higher = faster cleavage; RNA array
Conditions: with glucosamine-6-phosphate
Outline: (§1)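 The measurements used barcoded ribozyme variants on sequenced MiSeq chips, transcribed in situ by E. coli RNA polymerase and tracked at 37 °C with a hybridised Cy3 probe. Glucosamine-6-phosphate, 40 μM to 10 mM in HEPES/KCl/Mg(OAc)2 buffer, was flowed in while tiles were imaged over ~14 h. Baseline-normalised signals, also normalised to non-cleaving reference variants, gave per-tile medians that were fit to one- or two-exponential decays for kobs. kcat and KM resulted from weighted Michaelis–Menten fits across concentrations.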

Variant	self-cleavage kobs at 2500 uM GlcN6P [s⁻¹]
AUAAAUGCGCCAGAACUACAGAAAUGUAGUUGACGAGGGGGAGGUUUAUCGAAUUUUCGGCGGAUGCCUUCAAA [A6U A39G C70U]	8.18e-05 ± 3.2e-05
AUAAAGGCGCCAGAACUACAGAAAUGUAGUUGACGAGGAGGAGGUUUAUCGAAUCUUCGGCGGAUGCCUCAAAA [A6G U55C C71A]	< 1e-05
AUAAAAGCGCAAGAUCUACAGAAAUGUAGUUGACGAGGAGGAGCUUUAUCGAAUUUUCGGCGGAUGCCUCCAAA [C11A A15U G44C]	< 1e-05
AUAAAAUCGCCAGAACUACAGAAAUGUAGUUGACGAGGAGGACGUUUAUCGAUUUUUCGGCGGGUGCCUCCAAA [G7U G43C A53U A64G]	< 1e-05
AUAAAAGCACCAGCACUACAGAAAUGUAGUUGACGAGGAGGAUGUAUAUCGAAUUUUCGGCGGAUGCCUCCAAA [G9A A14C G43U U46A]	< 1e-05
AUAAAAGAGCCAGAACUACAGAAAUGUAGUUUACGAUGAGGAGGUUUAUCGAAUUUUCGGCGGAUGCCUCCAAA [C8A G32U G37U]	< 1e-05
AUAAAACCUCCAGAACUACAGAAAUGUAGUUGACGAGGAGGAGGUUUAUCGAAUUUUCUGCGGAUGCCUCCAAA [G7C G9U G59U]	< 1e-05
AUAAAAGCGCCAGAACUACAGAAAUGUAGUUGACGAGGAGGAGGUUUAUAGAAUUUUCGGCGGAUGCCCCCAAA [C50A U69C]	6.67e-05 ± 2e-05
AUAAAAGCGGCAGAACUACAGAAAUGUAGUUGACGACGAGGAGGUUUAUCGAAUUUUCGGCGGAUGUCUCCAAA [C10G G37C C67U]	< 1e-05
AUAAAAGCGCCAGAACUACAGAAAUGUAGUUCACGAGGCGGAGGUUUAUCGAAUUUUCGGGGGAUGCCUUCAAA [G32C A39C C61G C70U]	< 1e-05
AUAAAAGCGCCAGAACUACAGAAAUGUAGUUGACGGGGAGGAGGUUUAUCGAAUUUUCGUCGAAUGCAUCCAAA [A36G G60U G63A C68A]	< 1e-05
AUAAAAGCGCCAGAAGUACAGAAAUGUACUGGACGAGGAGGAGGUUUAUCGAAUUUUCGGCGGAUGCCUCCAAA [C16G G29C U31G]	0.00447 ± 0.00064
AUAAAAGCGCCAGAACUACAGAAAUGUAGUUGACGAGGAGGAGCUUUAUCGAAUCUUCGGCGGAUGCCUGCAAA [G44C U55C C70G]	< 1e-05
AUAAAAGCGGGAUAACUACAGAAAUGUAGUUGACGAGGAGGAGGUUUAUCGAAUUUUCGGCGGAUGCCCGCAAA [C10G C11G G13U U69C C70G]	< 1e-05
AUAAAAGCGCGAGAACUACAGAAAUGUAGUUGACGAGGAGGAGGUUUAUCGAAUUUUCGCCGCAUGCCUCCAAA [C11G G60C G63C]	< 1e-05
AUAAAACCGCGAGAACUACAGAAAUGUAGUUGACGAUGAGGAGGUUUAUCGAAUUUUUGGCGGAUGCCUCCAAA [G7C C11G G37U C58U]	< 1e-05
AUAAAAGCGCCUGAACUACAGAAAUGUAGUUGACGAUAAGGAGGUUUAUCGAAUUUUCGGCGGAUGCCUCCAAA [A12U G37U G38A]	< 1e-05
AUAAAAUCGCCAGCAAUACAGAAAUGUAGUUGACGAGGAGGAGGUUUAUCGAAUUUUCGGCGGAUGCCUCCAAA [G7U A14C C16A]	< 1e-05

Variant	self-cleavage kobs at 2500 uM GlcN6P [s⁻¹]
AUAAAAGCGCCAGAACUACAGAAAUGUAGUUGACGAGGAGGGUGUUUAUCGAAUUUUCGUAGGAUGCCUCCAAA [A42G G43U G60U C61A]	< 1e-05
AUAAAAGCGCCAGAACUACAGAAAUGUAGUUGACGAGGAGGAGCUUUAUCGAAUUUUCGGCAGAUGCGUCCAAA [G44C G62A C68G]	< 1e-05
AUAAAAUCGCCAGAACUACAGAAAUGUAGUUGACGAGGAGGAAGUUAAUCGAAUUUCCGGCGGUUGCCUCCAAA [G7U G43A U47A U57C A64U]	< 1e-05
AUAAAAGCGCCAGAGCUACAGAAAUGUAGUUGACGAGGAGGAGGUGUAUCCAAUCUUCAGCGUAUGCCUCCAAA [A15G U46G G51C U55C G59A G63U]	< 1e-05
AUAAAAGAGCCAGAACUACAGAAAUGUAGUUGACGAGAAGGAGGUUUAUCGAAUUUUCGGCGUAUGCUUCCAAA [C8A G38A G63U C68U]	< 1e-05
AUAAAAGCGCCCGAACUACAGAAAUGUAGUUGACGAGGAGGAGGUUUAUCGUAUUUUCGGCGGAUGUCUCCAAA [A12C A52U C67U]	0.000185 ± 4.2e-05
AUAAAGGCGCCAGCACUACAGAAAUGUAGUUGACGAGGAGGAGGUUUGUCGAAUUUUCGGCGGAUGCCUCCAAA [A6G A14C A48G]	< 1e-05
AUAAAAGCGCCAGAACUACAGAAAUGUAGUAUACGAGGAGGAGGGUUAUCGAAUUUUCGGCGGAUGCCUCCAAA [U31A G32U U45G]	0.000148 ± 5.6e-05
AUAAAAGCGCAAGAACUACAGAAAUGUAUUUGACGAGGAGGAGGUUUAUCGAAUUUUAGGCGGAUGCCUCCAAA [C11A G29U C58A]	< 1e-05
AUAAAAGCGCCAGAACUAAAGAAAUGUAGUUGACGAGGAGGCGGUUUAUCGAAUUUUCGGCGGAUGCCUCCAAA [C19A A42C]	< 1e-05
AUAAAAGCGCCAGCACUACAGAAAUGUAGUUGCCGAGGAGGAGGUUUAACGAAUUUUCGGCGGAUCCCUCCAAA [A14C A33C U49A G66C]	< 1e-05
AUAAAAGCGCCAGAACUACAGAAAUGUAGUUGACGCGGAGGAGGUUUAUCGAAAUUUCGGAGGAUGACUCCAAA [A36C U54A C61A C67A]	6.51e-05 ± 2.2e-05
AUAAAAGCGCCAGAACUACAGAAAUGUAGCUGACUAGGAGGAGGUUUAUCGAAUUUUCGGCGGACGCCUCCAAA [U30C G35U U65C]	< 1e-05
AUAAAAGCGCCAGCACUACAGAAAUGUAGUUGACGAGGAGGAGGGUUAUCGAAUUUUCGGCGGAUGCUUCCAAA [A14C U45G C68U]	3.4e-05 ± 1.6e-05
AUAAAAUCGCCAGAACUACAGAAAUGUAGUUGACCAGGAGGAAGUUUGUCGAAUUUUCGGCGGAUGCCUCCAAA [G7U G35C G43A A48G]	< 1e-05
AUAAAAGCGCCAUAACUACAGAAAUGUAGUUGACUAGGAGGAGGUUUAUCGAAAUUUCGGCGGAUGCCUCCAAA [G13U G35U U54A]	< 1e-05
AUAAAAGCGCCAGAACUACAGAAAUGUAGUUGACGAGGAAGAGGUGGAUCGAAUUUUCGGCGGAUGCCUCCAAA [G40A U46G U47G]	0.000358 ± 0.00012

Variants of: B1
Test: self-cleavage kobs at 10000 uM GlcN6P; higher = faster cleavage; RNA array
Conditions: with glucosamine-6-phosphate
Outline: as §1

Variant	self-cleavage kobs at 10000 uM GlcN6P [s⁻¹]
AUAAAAGCGCGAGAACUACAGAAAUGUAGUUGACGAGGAGGAGGUUUAUCGAAUUUUCGCCGCAUGCCUCCAAA [C11G G60C G63C]	< 1e-05
AUAAAACCGCGAGAACUACAGAAAUGUAGUUGACGAUGAGGAGGUUUAUCGAAUUUUUGGCGGAUGCCUCCAAA [G7C C11G G37U C58U]	< 1e-05
